Source: a protein production outcome set (Wang et al. 2014)

Experiment: label from the status in PepcDB records

Sequence | protein production
MMEQALQTITLSCEWSEERQCFWLSSSSPATSWAPLVFAWHEETFYGTLIDSVIVNGREVVQLSPWQALTFFASRPSISFVAIEWKDEFTAQLETWARQIWDDLRERRFRPDFAAWKERRSTLWSEAQHTRWLGLDADPHPFITTWRSLAIADWLSRDPELRDIWQEIIKDYPAILARNDQWISGEDDWLEQIGWLGERPLFTVGLRLVEPPEDGDSWTLETVLIALDDSVVVPVDEIPRAWRPYEQSIARAIRRIETIIPWLGGNGELRNELSDDEAWLFLSEESLKLTEAGVRLLLPDWWHNIRQAQLSIKAKLSPSVHAESLFGLERLSDFDWRVATNGIELTEEEFAAIAEQKRRLIRLRGQWIALDPALVRRAQTLMEKAKQEGVPIHEIVAQTLLAEANARDEATDEHIPIHIDVQNQFRAFIRQLHNIDELPTAVVPPSFHGTLRPYQQRGVDWLAFLRRFGFGACLADDMGLGKTVQLLAYLAYVKETEHPDTPALLICPTSVIGNWQKECARFTPELRVYTHHGPNRAKHEAFLQTAGRADLVITSYSLAHLDGDDLKQLHWHTVCLDEAQNIKNAQTKQARAIRRLRAKHKIALSGTPVENRLNELWSIFHFLNPGYLGSATEFERRFAGPIEKEGDAHKKAALQALIRPFLLRRTKTDEAVALNLPDKLEQKEYCPLTAEQAALYEQLVNDTLERAKAASPFARRGLILQMLNGIKQICNHPALYLKERSPRQLVERSHKLEKLVELVEQIRANDESCLIFTQYVRMGEMIQELLSDLFDEPVLFLNGSVPKPTRDRMVDEFQARKAPIFLLSLKAGGTGLNLTAANHVIHFDRWWNPAVENQATDRAYRIGQTKFVHVHKLITTGTIEEKIDEMLEQKQALADVITEGETWITELSDDELRDLLTLSAAAKGGA | failed
AIQVFDVTAVNISATSLTLIWKVSDNESSSNYTYKIHVAGETDSSNLNVSEPRAVIPGLRSSTFYNITVCPVLGDIEGTPGFLQVHTPPVP | not failed
MADNKVNLSINGQSKVPPGFRFHPTEEELLHYYLRKKVNSQKIDLDVIREVDLNKLEPWDIQEECRIGSTPQNDWYFFSHKDKKYPTGTRTNRATVAGFWKATGRDKIICSCVRRIGLRKTLVFYKGRAPHGQKSDWIMHEYRLDDTPMSNGYADVVTEDPMSYNEEGWVVCRVFRKKNYQKIDDCPKITLSSLPDDTEEEKGPTFHNTQNVTGLDHVLLYMDRTGSNICMPESQTTTQHQDDVLFMQLPSLETPKSESPVDQSFLTPSKLDFSPVQEKITERPVCSNWASLDRLVAWQLNNGHHNPCHRKSFDEEEENGDTMMQRWDLHWNNDDNVDLWSSFTESSSSLDPLLHLSV | failed
MLIRPATTADFDALRAIELAAFETLRAAGAVSGSASASTDQQLQRYLDHGLLDVACDQSGEPIGFCGGYIAESFLHIGEMDVHPAWQRQGVGRRLLTALLEEARARKADGATLTTDRLVPFNAPFYASLGFRPLADDELPAKLREILDAEANMGLDPDRRIAMMLRF | failed
MNADEFVEAFNNAKDLTELELLAELGKSISDDLEGHEKGKVLGTLGNIYYALHRLKEAEEAYLEALNVYLKLSEEDEGFLPYVVGCLYNLGNLYQVSRKFAEAEKAYTDALKVLGDVRNDQRLAILTALGTMYAKLDMKEHAERCLVEAFEMAKVKGDARLLGTLLNNLAVVYQRGGRKREAAMLLKMALDALERVGEDLGIAAVLQNLLPYLDEDELRRVMERLESFGELPIDLKAKIAYFKARRAEEKGEDSAKHYMEAACLGFMAYRNFGFQSINFMHCLDKVIESDSELREDAVVLKKVILKYYYGSQKVEIDFDSRVGRMIKAVLEGDDIYEDGILEDTVRLIAEDLLKAGTKV | failed
MAPDQQVPATALGKSSRISLDGRRSERSVILADGSMHSLTLLHPGVYTLSSEVAETIRVLSGMAYYHAEGANDVQELHAGDSMVIPANQSYRLEVMEPLDYLLSS | not failed
MFITTEGINAGYTIKDVVEATSSLMLASEDIDKYNMFDQLFDEAKQKLKKKADLLEGDGIIGLKYNTEVVEVNGAPKFLVVHGYGTVILIDK | not failed
MILPWLILIPFIGGLLCWLGERFGSTLPRWIALLTMTLELALGLWLWATGNFGYAPVPGADPTWALEFHHPWITRFGIDVHLALDGLSLLMILLTGLLGVLSVLCSWKEIQRKVGFFHLNLMWILGGVVGVFLAIDLFMFFFFWEMMLVPMYFLIALWGHSSSDGKKTRIYAATKFFIFTQASGLIMLVAILGLVLVHFNQTGVITFAYADLLKTKLAPGTEYILMLGFFIAFAVKLPVVPLHSWLPDAHAQAPTAGSVDLAGILLKTAAYGLLRFALPLFPNASAEFAPIAMALGLVGIFYGAFLAFAQTDIKRLIAFSSVSHMGFVLIGIYSGSQQALQGVLIQMIAHGLSAAALFILSGQLYERLHTRDMREMGGLWSRIAYIPAISLFFAAASLGLPGTGNFVGEFLILLGSFASAPWITAIATSGLVFGSVYSLIMIHRAYFGPAKSDEVLKGMDGREMIMVLGLAVLLVVLGVFPQPFLDTSAATMHGVQQWLGTAFTQLASAR | not failed
MIRKKQTEKPSEWDPPAPSTVYIKIKNIPYETFKTKLNQGLVTTDLDQIRYRLEKHIYCCGVCSKHVNGYCVITNRKAEPGWICKSFVPKEEFIYLDSRPDRKDPAEFRYLSETGLEKDYIESAGARERRHGNEGTKALYDEGVTLYRQGRLKLALEAFDSVLEANPLDFAALFHKGNALLKLKRYEEALEVFERASEINQENAGLWTNLGFIFTKLERFRDSLEAFEKSISLNPVQKNAWEGRDAVIARVRLCEERLRESEEALKKNPEDPDTLFKIGKIHLRLGEQEKAIQAFKKALEIKPENAEAWQFRGKVLFKAGSEKEALHAFEKATRLKPDYAEAWFEKGNAFLKLENLKGAENAFKIAARLWDSKGIKSKAESARDKVKRLHSSN | failed
MGRRPSSSHKVSSGKISARPSLHCERGGFMRKTFLAPLTVALCALAAAQTPPPAPIDRPLPAPEPPATATVTRNEPTPQQFTPDKLARLKVPAGFKVSVMATELGNARMLHVMPDGGIYLSRRQNGDIWYLKDVNGDGTIDATERRRVADQLKLVHGIDTRQGKLYAVGEKTIWVMDIARDGTLSVPRVFADNFPDAGQHPARQLGWGPDGYLYASFGATNNDAPTQNPEEATILRIRPDGQVREVYARGLRHTIGFGWHPVTKTFYGMDQGSDWHGDNIPPEELNVIKRGKNYGWPFCYGAKNPDPFVNVANIPGKITKAEYCATTEPSTLNYTAHAAAIALKFYTGTQFPAEFRNDAFVTFRGSWNRNEPSGYEVARVVFDAQNKPEKIEPFVTGFVYQEGGEWKQFGRVAGLAVYTDGSLLFTDDQSGVIYRVQYVGGQK | failed
LEVLVKTLDSQTRTFIVGAQMNVKEFKEHIAASVSIPSEKQRLIYQGRVLQDDKKLQEYNVGGKVIHLVERAP | not failed
MAISKDLYPSQEDLLYEEELLRNQFSLKLWWRYLIAKAESPFKKRFIIYERALKALPGSYKLWYAYLRERLDIVRNLPVTHPQYDSLNNTFERGLVTMHKMPRIWVMYLQTLTVQQLITRTRRTFDRALCALPVTQHDRIWEPYLVFVSQNGIPIETSLRVYRRYLMYDPSHIEEFIEFLVKSERWQESAERLASVLNDDKFYSIKGKTKHKLWLELCELLVHHANVISGLNVDAIIRGGIRKFTDEVGMLWTSLADYYIRKNLLEKARDIYEEGMMKVVTVRDFSVIFDVYSRFEESTVAKKMEMMSSSDEEDENEENGVEDDEEDVRLNFNLSVKELQRKILNGFWLNDDNDVDLRLARLEELMNRRPALANSVLLRQNPHNVEQWHRRVKIFEGNAAKQILTYTEAVRTVDPMKAVGKPHTLWVAFAKLYENHKDLVNTRVIFDKAVQVNYKTVDHLASVWCEWAEMELRHKNFKGALELMRRATAVPTVEVRRRVAADGNEPVQMKLHRSLRLWSFYVDLEESLGTLESTRAVYEKILDLRIATPQIIMNYAFLLEENKYFEDAFKVYERGVKIFKYPHVKDIWVTYLTKFVKRYGKTKLERARELFEHAVSMAPSDAVRTLYLQYAKLEEDYGLAKRAMKVYEEATKKVPEGQKLEMYEIYISRAAEIFGVPRTREIYEQAIESGLPHKDVKIMCIKFAELERSLGEIDRARALYKYSSQFADPRSDPEFWNKWHEFEVQHGNEDTYREMLRIKRSVSASYSQTHFILPENMMQKDKLLDVEDAKGELKRAGLPEDEMAALERQLLSTTTPTEPAKDGGRRVGFVSAGVISQSGENEGKPVTGNGEDIELPDESDDESDGDDHVEISQKEVPAAVFGGLARKRDEDGEEAGEDGAAQKLGALERIKRQKLNQ | failed
VTPQGLRIVLQDDYKQHMFSRGGAELTPFFEDLLLALAPLFEQVTNPLIISGHTDAIPFKKRFGRQSNWALSASRADVARKTLVEGGMPDDRVMQVTGMSDRALLNPDEPDSSENRRIELFILTTP | failed
